Molecular target: Cdc42 biosensor with the effector-binding mutations T35S and Y40C in Cdc42 (UniProt Q13153)

difference in FRET/mCer ratio of the biosensor by fluorometry in HEK293 cells, GDI-bound (with excess GDI) against GDI-free: 17%
Substance: guanine nucleotide dissociation inhibitor (from UniProt P52565 1-204) (natural protein)

— publication PMC4010534
